These results are taken from patent US20230145766A1.

This assay addresses IL-2 receptor on the surface of human lymphocytes (T cells, NK cells, Treg cells from PBMC) (human). The assay can be described thus: cell-based or functional assay.

In turn, “human wild-type IL-2 (rhIL-2, R&D systems, Catalog No. 202-IL) (from UniProt P60568 21-153) (ligand)” displayed a CD25-pSTAT5 EC50 (CD8+ CD25- T cells) of 0.47 nM; an EC50 of pSTAT5, CD4+CD25- T cells of 0.102 nM; an EC50 of pSTAT5, CD8+ T cells of 1.69 nM; an EC50 of pSTAT5, NK cells of 24.2 pM. The same substance had an EC50 of pSTAT5, Treg cells of 0.388 pM.
